Reference: patent US10570381B2, “STEP-derived peptide for brain injury treatment” (STC.UNM, priority 2010, dated 2020)

How the values were obtained:
cultured neurons [1] = test: cell culture model of glutamate toxicity (Hoechst DNA staining); type: cell-based; conditions: transduction prior to or immediately after glutamate (100 μM, 30 min); staining 24 hr later
Source text: Using a cell culture model of glutamate toxicity we first investigated the functional significance of STEP's activation following excitotoxic NMDA receptor stimulation. […] As described in Poddar et al., 2010, using a substrate-trapping mutant we established that p38 MAPK is a substrate of STEP and the KIM domain of STEP is involved in STEP-p38 interaction. NR2B-NMDAR mediated activation of STEP promotes cell survival by down-regulating p38 MAPK signaling pathway. However sustained NMDAR stimulation results in degradation of active STEP leading to secondary activation of p38 MAPK that triggers cell death pathways. Based on these findings we generated a constitutively active form of a STEP peptide that can bind irreversibly to p38 MAPK. It was rendered cell permeable by fusion to the protein transduction domain of the human immunodeficiency virus-type I, TAT.

cultured neurons [2] = test: oxygen-glucose deprivation (OGD), in vitro model of cerebral ischemia; type: cell-based; conditions: pre-incubation with peptide; OGD 2 hr; viability tested 24 hr later
Protocol: In subsequent experiments we used oxygen-glucose deprivation (OGD) as an in vitro model of cerebral ischemia to evaluate the role of TAT-STEP peptide in neuroprotection following an ischemic insult. Cultured neurons were submerged in glucose free buffer in a hypoxic chamber (oxygen-glucose deprivation or OGD) for 2 hr in the presence or absence of the peptide and cell viability was tested by Hoechsy DNA staining 24 hr later.

striatum = test: animal model of glutamate toxicity, stereotactic injection into the striatum; type: in vivo; conditions: injected stereotactically into the striatum prior to glutamate
male Wistar rats = test: middle cerebral artery occlusion (MCAO) acute ischemic stroke model; type: in vivo, rat; conditions: intravenous, reperfusion 24 hr, vs saline, p<0.01
Protocol: FIG. 13 is a quantitative analysis of the infarct volume. Infarct volumes are expressed as a percentage of the contralateral (control) hemisphere and the data are mean +/− SEM (p<0.01).
FIG. 15 is a quantitative analysis of the infarct volume. Infarct volumes are expressed as a percentage of the contralateral (control) hemisphere and the data are mean +/− SEM (p<0.01).
Using an animal model of cerebral ischemia (middle cerebral artery occlusion for 90 min to generate embolic stroke followed by reperfusion for 24 hr), we evaluated whether degradation of active STEP contributes to neuronal cell death and subsequent brain damage and if the modified STEP peptide can mitigate ischemic brain damage. At first we examined the temporal profile of STEP's activation and subsequent degradation following cerebral ischemia and reperfusion and also evaluated its correlation with p38 MAPK activation. The findings show a rapid but transient increase in phosphorylation of p38 MAPK within 15 min of ischemic insult. This was followed by a time-dependent decrease in p38 phosphorylation from 30 min, which returned to basal levels by 90 min. […] As a consequence, active STEP limits the duration of activation of p38 MAPK. Progressive down regulation of active STEP through degradation is evident from ˜6 hours after reperfusion resulting in secondary activation of p38 MAPK. […]

B1: TAT-STEP peptide: constitutively active STEP-derived peptide fused to HIV-1 TAT protein transduction domain, myc-tagged; exact mutation set not stated here (protein)
chain: MALYGRKKRRQRRRGEEKVEDDFLDLDAVPETPVFDCVMDIKPETDPASLTVKSMGLQERRGANVSLTLDMCEPGCNEEGFGYLVEPREESAHEYLLSASRVLRAEELHEKALDPFLLQAE
modifications: Mouse
neuronal cell death as assessed by Hoechst DNA staining (cultured neurons [1]): blocked neuronal cell death
OGD-induced cell death (Hoechst DNA staining) (cultured neurons [2]): significant reduction in OGD-induced cell death
glutamate-induced excitotoxic cell death in vivo (striatum): could attenuate glutamate-induced excitotoxic cell death in vivo

B2: TAT-STEP peptide of SEQ ID. No. 11: cell-permeable TAT-STEP peptide given intravenously in MCAO; figure legends call the treatment TAT-STEP-myc (protein)
chain: B1 chain
modifications: myc tag; Mouse
protection against ischemic brain injury (infarct volume, TTC staining) (male Wistar rats; 1.5 hr after onset of stroke (MCAO 90 min)): significant protection against ischemic brain injury
protection against ischemic brain injury (infarct volume, TTC staining) (male Wistar rats; immediately before MCAO 90 min): significant protection against ischemic brain injury
